This test addresses T1, Presenilin-1 peptide (Homo sapiens).
T1 chain: Dansyl-AFHQFYI
The test can be described thus: stopped-flow kinetics (FRET).

No end group written: not given here. *: point of attachment. Dansyl = CN(C)c1cccc2c(S(=O)(=O)*)cccc12

B1: X11 PDZ1-PDZ2-ΔC 651-827 (protein)
chain: SENCKDVFIEKQKGEILGVVIVESGWGSILPTVIIANMMHGGPAEKSGKLNIGDQIMSINGTSLVGLPLSTCQSIIKGLKNQSRVKLNIVRCPPVTTVLIRRPDLRYQLGFSVQNGIICSLMRGGIAERGGVRVGHRIIEINGQSVVATPHEKIVHILSNAVGEIHMKTMPAAMYRL
B1: binding was put at a Kd of 7 µM.

B2: X11 PDZ1 651-744 (protein)
chain: SENCKDVFIEKQKGEILGVVIVESGWGSILPTVIIANMMHGGPAEKSGKLNIGDQIMSINGTSLVGLPLSTCQSIIKGLKNQSRVKLNIVRCPP
In turn, B2 registered a Kd of 5.5 µM.

(Values after publication PMC10017356 (2023).)
